Experimental data published in patent US20100204147A1, “Methods For Delivering Thymosin Beta 4, Analogues, Isoforms and Other Derivatives” (REGENERX BIOPHARMACEUTICALS, INC., priority 2003, published 2010).

Key:
fibrin [1] = molecular target: T1, fibrin (Homo sapiens, UniProt P02671); experiment: Solid-phase binding assay (ELISA), immobilized fibrin
T1 construct: purchased Enzyme Research Laboratories (South Bend, Ind.); host or cells: fibrin generated in the well or tube from the purchased fibrinogen with bovine thrombin
T1 sequence (P02671 36-629 limits assumed): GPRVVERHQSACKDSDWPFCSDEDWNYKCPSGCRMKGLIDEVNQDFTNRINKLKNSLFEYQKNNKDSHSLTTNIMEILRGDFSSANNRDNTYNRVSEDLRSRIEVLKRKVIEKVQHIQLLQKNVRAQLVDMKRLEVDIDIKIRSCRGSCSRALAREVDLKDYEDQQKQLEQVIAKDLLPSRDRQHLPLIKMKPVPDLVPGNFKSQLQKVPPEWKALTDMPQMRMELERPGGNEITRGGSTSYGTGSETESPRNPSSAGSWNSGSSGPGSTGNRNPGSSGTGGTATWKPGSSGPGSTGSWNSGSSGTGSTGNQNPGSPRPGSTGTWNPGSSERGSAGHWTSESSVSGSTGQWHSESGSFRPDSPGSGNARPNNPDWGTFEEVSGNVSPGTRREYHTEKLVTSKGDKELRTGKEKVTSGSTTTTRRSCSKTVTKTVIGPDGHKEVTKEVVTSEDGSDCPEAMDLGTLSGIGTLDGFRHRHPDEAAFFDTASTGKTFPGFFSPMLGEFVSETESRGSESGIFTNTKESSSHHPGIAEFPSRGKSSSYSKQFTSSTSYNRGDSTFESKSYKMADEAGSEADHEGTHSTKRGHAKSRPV
T1 sequence (P02675 45-491 partner limits assumed): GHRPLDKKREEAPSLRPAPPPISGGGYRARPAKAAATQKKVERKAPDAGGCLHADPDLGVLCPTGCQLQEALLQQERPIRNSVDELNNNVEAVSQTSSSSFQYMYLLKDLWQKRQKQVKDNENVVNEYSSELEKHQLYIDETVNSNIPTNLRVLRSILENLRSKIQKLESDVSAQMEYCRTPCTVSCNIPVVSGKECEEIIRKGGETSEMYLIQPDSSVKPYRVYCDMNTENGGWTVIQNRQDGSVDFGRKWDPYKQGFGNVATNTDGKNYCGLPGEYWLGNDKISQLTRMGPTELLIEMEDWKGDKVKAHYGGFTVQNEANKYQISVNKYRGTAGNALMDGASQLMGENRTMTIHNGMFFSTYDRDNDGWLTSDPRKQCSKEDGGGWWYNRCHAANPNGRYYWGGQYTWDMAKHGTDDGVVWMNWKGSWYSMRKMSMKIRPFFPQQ
T1 sequence (P02679 27-437 isoform P02679-2 partner limits assumed): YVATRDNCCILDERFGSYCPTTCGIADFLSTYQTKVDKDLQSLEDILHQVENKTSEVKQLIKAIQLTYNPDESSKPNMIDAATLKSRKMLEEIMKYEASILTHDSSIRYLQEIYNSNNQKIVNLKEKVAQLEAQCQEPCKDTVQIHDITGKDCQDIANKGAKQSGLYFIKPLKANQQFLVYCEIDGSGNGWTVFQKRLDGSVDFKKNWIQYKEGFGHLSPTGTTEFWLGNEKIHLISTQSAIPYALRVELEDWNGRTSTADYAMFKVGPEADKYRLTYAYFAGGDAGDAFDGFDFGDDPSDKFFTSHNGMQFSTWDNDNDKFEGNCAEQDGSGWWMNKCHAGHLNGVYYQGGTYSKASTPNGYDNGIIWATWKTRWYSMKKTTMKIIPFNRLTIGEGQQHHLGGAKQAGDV
Procedure: The interaction between thymosin β4 and fibrin(ogen) and its fragments in the presence or absence of FXIIIa was studies by ELISA using plastic microliter plates. Wells of microliter plates were coated overnight at […] with fibrinogen and fibrin at 10 μg/mL or with the recombinant fragments of 20 μg/ml, all in 0.1 M NaHCO3 buffer, pH 8.3. Fibrin was made by addition to the wells of a mixture containing 10 μg/mL fibrinogen 1 NIH u/ml thrombin and 400 u/ml aprotinin, followed by overnight incubation at +4° C. The wells were then blocked by incubation with Super Blocker (Pierce) at 37° C. for 1 h. Following washing with TBS containing 0.05% Tween-20 (TBS-Tween), the indicated concentrations of thymosin β4, FXIII, FXIIIa(Thr) and FXIIIa(Ca) were added to the wells and incubated for 2-2.5 h at 37° C. Bound (incorporated) thymosin β4 was detected by the reaction with rabbit anti-thymosin β4 serum and peroxidase-conjugated anti-rabbit IgG. A TMB Microwell Peroxidase Substrase was added to the wells, and the incorporated thymosin β4 was measured spectrophotometrically at 450 nm.

fibrin [2] = molecular target: T1, fibrin; experiment: Western blot time course of factor XIIIa-mediated incorporation into fibrin; assay type: biochemical; conditions: mixture of thrombin, factor XIII, thymosin β4 and fibrin; immunoblotting
Procedure: Reactions of incorporation of FITC-labeled and unlabeled thymosin β4 into fibrinogen and fibrin were performed in Eppendorf tubes containing a mixture of fibrinogen at 3 mg/mL (9 μM) and thymosin β4 or FITC-labeled thymosin β4 at […] (30 μM) in 100 μL TBS with 2.5 mM CaCl2. The reactions were initiated by addition of FXIIIa(Ca) or FXIIIa(Thr) to final concentration of 30 μg/mL. The final concentration of thrombin in the FXIIIa(Thr)-containing mixtures was made at 2.5 NIH u/mL, sufficient to rapidly form fibrin clot which was observed visually. The reactions with FITC-labeled thymosin β4 lasted for 4 hours at 37° C. in the dark and were stopped by heat inactiviation of the enzymes in boiling water for 5 min during fibrinogen and fibrin denatured and precipitated. The pellets were centrifuged and washed 3 times in TBS and then solubilized. The amounts of fibrin(ogen) and FITC-labeled thymosin β4 in the solubilized pellet were determined spectrophotomertrically using absorption molar coefficients E280,1%=15.0 and ε495=72,000 M^−1cm^−1, respectively. […]
Detection of thymosin β4 incorporated into fibrin(ogen) and its fragments was performed as follows. […] The membrane was blocked with a casein blocker for 1 hour and thymosin β4 was detected by the reaction with rabbit anti-thymosin β4 serum and peroxidase-conjugated anti-rabbit IgG. […]

thymosin β4
non-covalent interaction with immobilized fibrin (ELISA signal) (fibrin [1]; absence of factor XIII or non-activated factor XIII): no significant non-covalent interaction
factor XIIIa-mediated incorporation into immobilized fibrin (ELISA signal) (fibrin [1]; factor XIII activated by CaCl2): higher than that into fibrinogen
time at which the amount of incorporated (cross-linked) thymosin β4 reaches saturation (fibrin [2]): 4 h
